The text below walks through data of paper PMC7367873, “Dissecting the sequence determinants for dephosphorylation by the catalytic subunits of phosphatases PP1 and PP2A” (Nature Communications, 2020).

For assay [1], the system named is GFP-14-3-3β and its binding proteins. The assay can be described thus: GFP-14-3-3β co-IP with LC-MS/MS label-free quantification, untreated versus PP1c-treated. On the set-up: species or system human.
Another assay deals with GFP-14-3-3β. The assay can be described thus: GFP-14-3-3β co-IP with LC-MS/MS, untreated GFP-14-3-3β versus GFP control (14-3-3 interactome). The assay is classed as binding, human.
The mark [2] stands for this setting: PP1 vs untreated, LFQ intensities, replicates 1-3.
[3] abbreviates: untreated vs GFP, LFQ intensities, replicates 1-3.

B1: ZC3H18 (protein, UniProt Q86VM9 1-953, looked up)
Zinc finger CCCH …: MDVAESPERDPHSPEDEEQPQGLSDDDILRDSGSDQDLDGAGVRASDLEDEESAARGPSQEEEDNHSDEEDRASEPKSQDQDSEVNELSRGPTSSPCEEEGDEGEEDRTSDLRDEASSVTRELDEHELDYDEEVPEEPAPAVQEDEAEKAGAEDDEEKGEGTPREEGKAGVQSVGEKESLEAAKEKKKEDDDGEIDDGEIDDDDLEEGEVKDPSDRKVRPRPTCRFFMKGNCTWGMNCRFIHPGVNDKGNYSLITKADPFPPNGAPPLGPHPLMPANPWGGPVVDEILPPPPPEPPTESAWERGLRHAKEVLKKATIRKEQEPDFEEKRFTVTIGEDEREFDKENEVFRDWNSRIPRDVRDTVLEPYADPYYDYEIERFWRGGQYENFRVQYTETEPYHNYRERERERERENRQRERERERERDRERERRQRERERERERERDKERQRRKEEWERERAKRDEKDRQHRDRDREKEREKEKGKPKPRSPQPPSRQAEPPKKEAATTGPQVKRADEWKDPWRRSKSPKKKLGVSVSPSRARRRRKTSASSASASNSSRSSSRSSSYSGSGSSRSRSRSSSYSSYSSRSSRHSSFSGSRSRSRSFSSSPSPSPTPSPHRPSIRTKGEPAPPPGKAGEKSVKKPAPPPAPPQATKTTAPVPEPTKPGDPREARRKERPARTPPRRRTLSGSGSGSGSSYSGSSSRSRSLSVSSVSSVSSATSSSSSAHSVDSEDMYADLASPVSSASSRSPAPAQTRKEKGKSKKEDGVKEEKRKRDSSTQPPKSAKPPAGGKSSQQPSTPQQAPPGQPQQGTFVAHKEIKLTLLNKAADKGSRKRYEPSDKDRQSPPPAKRPNTSPDRGSRDRKSGGRLGSPKPERQRGQNSKAPAAPADRKRQLSPQSKSSSKVTSVPGKASDPGAASTKSGKASTLSRREELLKQLKAVEDAIARKRAKIPGKA
Regarding B1, the “Difference (log2), PP1 vs untreated” value in assay [1] (setting [2]) is -1.028 log2. Moreover, the “Difference (log2), untreated vs GFP” value in the assay on GFP-14-3-3β (setting [3]) is 1.571 log2.

B2: CORO1B (protein, UniProt Q9BR76 1-489, looked up)
Coronin-1B: MSFRKVVRQSKFRHVFGQPVKNDQCYEDIRVSRVTWDSTFCAVNPKFLAVIVEASGGGAFLVLPLSKTGRIDKAYPTVCGHTGPVLDIDWCPHNDEVIASGSEDCTVMVWQIPENGLTSPLTEPVVVLEGHTKRVGIIAWHPTARNVLLSAGCDNVVLIWNVGTAEELYRLDSLHPDLIYNVSWNHNGSLFCSACKDKSVRIIDPRRGTLVAEREKAHEGARPMRAIFLADGKVFTTGFSRMSERQLALWDPENLEEPMALQELDSSNGALLPFYDPDTSVVYVCGKGDSSIRYFEITEEPPYIHFLNTFTSKEPQRGMGSMPKRGLEVSKCEIARFYKLHERKCEPIVMTVPRKSDLFQDDLYPDTAGPEAALEAEEWVSGRDADPILISLREAYVPSKQRDLKISRRNVLSDSRPAMAPGSSHLGAPASTTTAADATPSGSLARAGEAGKLEEVMQELRALRALVKEQGDRICRLEEQLGRMENGDA
On to B2, for which, in assay [1] (setting [2]), the “Difference (log2), PP1 vs untreated” value was -1.031 log2. For the same molecule, the “Difference (log2), untreated vs GFP” value with GFP-14-3-3β (setting [3]) is 0.1576 log2.

B3: EIF2A (protein, UniProt Q9BY44 1-585, looked up)
Eukaryotic translation …: MAPSTPLLTVRGSEGLYMVNGPPHFTESTVFPRESGKNCKVCIFSKDGTLFAWGNGEKVNIISVTNKGLLHSFDLLKAVCLEFSPKNTVLATWQPYTTSKDGTAGIPNLQLYDVKTGTCLKSFIQKKMQNWCPSWSEDETLCARNVNNEVHFFENNNFNTIANKLHLQKINDFVLSPGPQPYKVAVYVPGSKGAPSFVRLYQYPNFAGPHAALANKSFFKADKVTMLWNKKATAVLVIASTDVDKTGASYYGEQTLHYIATNGESAVVQLPKNGPIYDVVWNSSSTEFCAVYGFMPAKATIFNLKCDPVFDFGTGPRNAAYYSPHGHILVLAGFGNLRGQMEVWDVKNYKLISKPVASDSTYFAWCPDGEHILTATCAPRLRVNNGYKIWHYTGSILHKYDVPSNAELWQVSWQPFLDGIFPAKTITYQAVPSEVPNEEPKVATAYRPPALRNKPITNSKLHEEEPPQNMKPQSGNDKPLSKTALKNQRKHEAKKAAKQEARSDKSPDLAPTPAPQSTPRNTVSQSISGDPEIDKKIKNLKKKLKAIEQLKEQAATGKQLEKNQLEKIQKETALLQELEDLELGI
Turning to B3, in assay [1] (log2 difference, pairwise comparison PP1 vs untreated, label-free quantification, 3 replicates each), the “Difference (log2), PP1 vs untreated” value was found to be 1.627. Further, the “Difference (log2), untreated vs GFP” value in the assay with GFP-14-3-3β (log2 difference, pairwise comparison untreated vs GFP, label-free quantification, 3 replicates each) was -1.244.

B4: SAMD4B (protein, UniProt Q5PRF9 1-694, looked up)
Protein Smaug homolog 2: MMFRDQVGILAGWFKGWNECEQTVALLSLLKRVTRTQARFLQLCLEHSLADCNDIHLLESEANSAAIVSQWQQESKEKVVSLLLSHLPLLQPGNTEAKSEYMRLLQKVLAYSIESNAFIEESRQLLSYALIHPATTLEDRNALALWLSHLEERLASGFRSRPEPSYHSRQGSDEWGGPAELGPGEAGPGWQDKPPRENGHVPFHPSSSVPPAINSIGSNANTGLPCQIHPSPLKRSMSLIPTSPQVPGEWPSPEELGARAAFTTPDHAPLSPQSSVASSGSEQTEEQGSSRNTFQEDGSGMKDVPSWLKSLRLHKYAALFSQMSYEEMMTLTEQHLESQNVTKGARHKIALSIQKLRERQSVLKSLEKDVLEGGNLRNALQELQQIIITPIKAYSVLQATVAAATTTPTAKDGAPGEPPLPGAEPPLAHPGTDKGTEAKDPPAVENYPPPPAPAPTDGSEPAPAPVADGDIPSQFTRVMGKVCTQLLVSRPDEENITSYLQLIEKCLTHEAFTETQKKRLLSWKQQVLKLLRTFPRKAALEMQNYRQQKGWAFGSNSLPIAGSVGMGVARRTQRQFPMPPRALPPGRMGLLSPSGIGGVSPRHALTSPSLGGQGRQNLWFANPGGSNSMPSQSRSSVQRTHSLPVHSSPQAILMFPPDCPVPGPDLEINPTLESLCLSMTEHALGDGTDKTSTI
Regarding B4, the “Difference (log2), PP1 vs untreated” value in assay [1] (setting [2]) is -1.071 log2. In addition, the “Difference (log2), untreated vs GFP” value with GFP-14-3-3β (setting [3]) is 4.238 log2.

B5: ACIN1 (protein, UniProt Q9UKV3 1-1341, looked up)
Apoptotic chromatin …: MWRRKHPRTSGGTRGVLSGNRGVEYGSGRGHLGTFEGRWRKLPKMPEAVGTDPSTSRKMAELEEVTLDGKPLQALRVTDLKAALEQRGLAKSGQKSALVKRLKGALMLENLQKHSTPHAAFQPNSQIGEEMSQNSFIKQYLEKQQELLRQRLEREAREAAELEEASAESEDEMIHPEGVASLLPPDFQSSLERPELELSRHSPRKSSSISEEKGDSDDEKPRKGERRSSRVRQARAAKLSEGSQPAEEEEDQETPSRNLRVRADRNLKTEEEEEEEEEEEEDDEEEEGDDEGQKSREAPILKEFKEEGEEIPRVKPEEMMDERPKTRSQEQEVLERGGRFTRSQEEARKSHLARQQQEKEMKTTSPLEEEEREIKSSQGLKEKSKSPSPPRLTEDRKKASLVALPEQTASEEETPPPLLTKEASSPPPHPQLHSEEEIEPMEGPAPAVLIQLSPPNTDADTRELLVSQHTVQLVGGLSPLSSPSDTKAESPAEKVPEESVLPLVQKSTLADYSAQKDLEPESDRSAQPLPLKIEELALAKGITEECLKQPSLEQKEGRRASHTLLPSHRLKQSADSSSSRSSSSSSSSSRSRSRSPDSSGSRSHSPLRSKQRDVAQARTHANPRGRPKMGSRSTSESRSRSRSRSRSASSNSRKSLSPGVSRDSSTSYTETKDPSSGQEVATPPVPQLQVCEPKERTSTSSSSVQARRLSQPESAEKHVTQRLQPERGSPKKCEAEEAEPPAATQPQTSETQTSHLPESERIHHTVEEKEEVTMDTSENRPENDVPEPPMPIADQVSNDDRPEGSVEDEEKKESSLPKSFKRKISVVSATKGVPAGNSDTEGGQPGRKRRWGASTATTQKKPSISITTESLKSLIPDIKPLAGQEAVVDLHADDSRISEDETERNGDDGTHDKGLKICRTVTQVVPAEGQENGQREEEEEEKEPEAEPPVPPQVSVEVALPPPAEHEVKKVTLGDTLTRRSISQQKSGVSITIDDPVRTAQVPSPPRGKISNIVHISNLVRPFTLGQLKELLGRTGTLVEEAFWIDKIKSHCFVTYSTVEEAVATRTALHGVKWPQSNPKFLCADYAEQDELDYHRGLLVDRPSETKTEEQGIPRPLHPPPPPPVQPPQHPRAEQREQERAVREQWAEREREMERRERTRSEREWDRDKVREGPRSRSRSRDRRRKERAKSKEKKSEKKEKAQEEPPAKLLDDLFRKTKAAPCIYWLPLTDSQIVQKEAERAERAKEREKRRKEQEEEEQKEREKEAERERNRQLEREKRREHSRERDRERERERERDRGDRDRDRERDRERGRERDRRDTKRHSRSRSRSTPVRDRGGRR
Regarding B5, in assay [1] (setting [2]), the “Difference (log2), PP1 vs untreated” value is reported as -1.001 log2. In addition, in the assay on GFP-14-3-3β (setting [3]), the “Difference (log2), untreated vs GFP” value was 1.747 log2.
